For assay [1], the target named is murine p55 receptor (on mouse L-M cells) (murine) (UniProt P25118). The experiment in a line: cell-based or functional assay.
Assay [2] deals with TNF receptors (on L-M mouse fibroblasts). The experiment in a line: cell-based or functional assay.

UniProt P25118, sequence (P25118 30-454): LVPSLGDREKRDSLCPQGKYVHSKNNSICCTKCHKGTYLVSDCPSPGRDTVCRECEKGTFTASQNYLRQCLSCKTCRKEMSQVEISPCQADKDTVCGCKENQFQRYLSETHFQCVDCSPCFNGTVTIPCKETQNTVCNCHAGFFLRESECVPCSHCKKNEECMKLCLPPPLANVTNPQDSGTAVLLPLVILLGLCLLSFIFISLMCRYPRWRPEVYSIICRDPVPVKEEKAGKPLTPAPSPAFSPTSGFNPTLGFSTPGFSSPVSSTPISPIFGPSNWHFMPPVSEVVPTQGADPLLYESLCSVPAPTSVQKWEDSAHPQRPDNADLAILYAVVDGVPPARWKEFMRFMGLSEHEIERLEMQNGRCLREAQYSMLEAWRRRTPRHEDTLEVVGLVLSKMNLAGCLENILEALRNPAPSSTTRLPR

With “human NGR-TNF (CNGRCG-TNF1-157), non-refolded (from UniProt P01375 1-233)”, in assay [1], the in vitro cytolytic activity on mouse L-M cells was determined as 6.11e+07 units/mg.
In assay [2], “murine NGR-TNF (Cys-Asn-Gly-Arg-Cys-Gly-TNF1-156) (from UniProt P06804 80-235)” had an in vitro cytotoxic activity, standard cytolytic assay with L-M cells of 1.8e+08 units/mg.
Substance “human NGR-TNF (CNGRCG-TNF1-157), refolded (from UniProt P01375 1-233)” yielded an in vitro cytolytic activity on mouse L-M cells in assay [1] of 5.09e+07 units/mg.

(Values after patent US7109303.)
